Assay results from US20180334496A1.

Biological target: recombinant human CFD mutant 1 (R157A, R207A), His-tagged (human) (UniProt P00746)
Test: ELISA

Chain of recombinant human CFD mutant 1 (R157A, R207A), His-tagged (human) (P00746 26-253 R182A/R232A limits assumed): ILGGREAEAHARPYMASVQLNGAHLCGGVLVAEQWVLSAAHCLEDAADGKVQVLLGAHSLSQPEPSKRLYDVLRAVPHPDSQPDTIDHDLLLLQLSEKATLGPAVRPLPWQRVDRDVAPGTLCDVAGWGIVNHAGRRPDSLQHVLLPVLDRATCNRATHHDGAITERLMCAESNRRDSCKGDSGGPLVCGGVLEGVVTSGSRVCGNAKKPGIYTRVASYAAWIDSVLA

B1: KCD119 (antibody, V domains shown)
VH: EVQLQQSGPELVKPGASVKISCKASGYTFTDYYTNWMRQRHGESLEWIGDINPNTGDTSYNQKFRVKATLTVDKSSGTAYMGLRSLTSEDSAVYYCTREGPSFAYWGQGTLVTVSA
VL: DVLMTQTPLSLPVSLGDQASISCRSSQTIVHSNGDTYLEWYLQKPGQSPNLLIYKVSNRFSGVPDRFSGSGSGTDFTLKISRVEAEDLGVYYCFQGSHVPPTFGGGTTLEIK
- Mut1 Binding (% wt): 13.6 % wt
